# Data: the supplement of paper PMC10567573
# B1: NEUROD6 (parent)
# chain: YHSPELTTPPGHGTLDNSKSMKPY
# B2: TRIM35 (parent)
# chain: WEVQVSPTCPVCKDRASPADLRTN
# Variants of: B1
# Assay: protein stability index of a GFP-peptide fusion (GPS, HEK-293T) (PSI 1-6); higher = more stable
# Conditions: c terminus: a fixed tail appended
# 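Note: lentivirally expressed fusions sorted by FACS into six bins by GFP to DsRed ratio, PSI derived from sequencing read proportions per bin multiplied by bin number.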
row,Variant,protein stability index
1,M21L,2.44
2,M21H,2.56
3,M21N,2.82
4,M21Y,1.54
5,M21F,2.18
6,M21R,2.23
7,M21W,2.14
8,M21C,2.42
9,M21T,2.67
10,M21G,2.71
11,M21I,2.84
12,M21K,2.36
13,M21E,2.35
14,M21P,2.62
15,M21V,2.42
16,M21D,2.39
17,M21A,2.16
18,M21S,2.18
19,M21Q,2.32
20,P23V,2.18
21,P23Y,1.77
22,P23F,2.33
23,P23E,2.41

row,Variant,protein stability index
1,P23D,2.28
2,P23N,2.36
3,P23W,2.67
4,P23L,2.44
5,P23Q,2.08
6,P23H,2.24
7,P23C,1.87
8,P23S,1.9
9,P23I,1.69
10,P23G,2.23
11,P23A,2.36
12,P23K,2.33
13,P23M,1.98
14,P23R,1.99
15,P23T,1.77
16,Y24M,2.02
17,Y24G,2.67
18,Y24K,2.23
19,Y24Q,2.62
20,Y24R,2.48
21,Y24I,2.21
22,Y24E,2.91
23,Y24S,2.36

row,Variant,protein stability index
1,Y24L,2.27
2,Y24V,2.41
3,Y24D,2.44
4,Y24N,2.44
5,Y24F,2.21
6,Y24A,2.24
7,Y24H,2.45
8,Y24W,1.98
9,Y24C,2.38
10,Y24T,2.55
11,S20K,1.94
12,S20W,1.97
13,S20L,1.79
14,S20Y,2.23
15,S20T,2.87
16,S20V,1.92
17,S20G,2.28
18,S20F,1.9
19,S20D,2.28
20,S20A,2.04
21,S20N,2.33
22,S20P,2.3
23,S20Q,2.48

row,Variant,protein stability index
1,S20C,1.86
2,S20E,2.54
3,S20H,1.87
4,S20M,2.43
5,S20R,1.4
6,S20I,1.7
7,K22G,1.75
8,K22M,2.15
9,K22S,2.26
10,K22Q,2.15
11,K22T,2.32
12,K22P,1.82
13,K22R,2.47
14,K22Y,1.83
15,K22A,2.56
16,K22H,1.87
17,K22N,2.14
18,K22V,2.06
19,K22D,2.55
20,K22C,1.81
21,K22I,2.41
22,K22L,2.2
23,K22F,2.25

row,Variant,protein stability index
1,K22E,2.46
2,K22W,2.32
3,K19T,2.35
4,K19D,2.85
5,K19V,2.39
6,K19N,2.44
7,K19P,2.22
8,K19G,2.21
9,K19E,2.59
10,K19Y,1.9
11,K19M,2.37
12,K19R,1.92
13,K19S,2.17
14,K19W,1.5
15,K19C,2.05
16,K19Q,2.24
17,K19H,2.07
18,K19F,1.85
19,K19I,2.33
20,K19L,1.96

# Variants of: B2
# Assay: as above
# Conditions: c terminus: a fixed tail appended
row,Variant,protein stability index
1,A16E,2.78
2,A16G,2.15
3,K13I,2.17
4,K13P,3.74
5,V3G,2.29
6,V3A,3.31
7,V3Y,3.35
8,V3K,2.83
9,V3P,2.49
10,D20V,1.97
11,D20S,1.68
12,S6Q,2.53
13,S6R,2.5
14,S6D,2.84
15,S6E,1.71
16,T23I,2.18
17,R15L,2.47
18,V11K,3.7
19,V11N,2.9
20,V11L,1.9
21,V5H,2.97
22,V5D,4.04
23,L21I,2.59
24,S17H,2.08
25,S17W,3.4
26,S17D,3.31
27,S17C,1.81
28,P7Q,2.43

row,Variant,protein stability index
1,P7L,1.9
2,N24I,1.7
3,N24M,1.55
4,R22E,4.1
5,R22Y,2.49
6,P18D,1.99
7,P18A,2.04
8,D14H,1.81
9,D14E,2.75
10,E2W,1.68
11,E2T,2.02
12,E2K,2.42
13,P10W,2.51
14,P10C,3.25
15,C9R,4.04
16,C9Q,4.56
17,C9N,4.34
18,A19K,2.96
19,A19Q,2.31
20,A19C,2.31
21,W1K,3.54
22,W1Q,3.1
23,W1S,2.6
24,W1C,3
25,Q4R,1.9
26,Q4W,1.48
27,Q4T,2.36
